Among the data in PMC3685266 are fold increase in apparent affinity over the SecA (Δcys) control and fold increase in affinity in the presence of proOmpA values, retold here.

For test [1], the target named is SecA_(D337C/K482C), intramolecularly disulfide cross-linked (clamp closed) (E. coli) (UniProt P10408). Briefly: steady-state ATPase activity titration; 0.15 μM SecA, 1 mM ATP, TKM buffer pH 7.5, 0.03% C12E9, 25°C, increasing purified detergent-solubilized SecYEG, with or without 10 mM DTT; apparent affinity from a ligand-binding fit.
Test [2] addresses SecA_(Δcys), SecA without cysteine residues (E. coli) (UniProt P10408). Briefly: steady-state ATPase activity titration; 80 nM SecA, 1 mM ATP, TKM buffer, increasing vesicles reconstituted with purified SecYEG, with 0.6 μM proOmpA_(Δcys), with or without 10 mM DTT.

On to “SecYEG complex (from UniProt P0AGA2 1-443; P0AG96 1-127; P0AG99 1-110)”, for which the fold increase in apparent affinity over the SecA (Δcys) control in test [1] was found to be 500 fold. Moreover, the fold increase in affinity in the presence of proOmpA in test [2] amounted to 5 fold.
